Results on 40 sequences are retold here after the supplement of paper PMC7877785.

± gives the uncertainty stated by the source.

A short description of this series: self-splicing fitness, log relative to wild type (ln ratio); higher = more splicing; Tetrahymena group I intron in knt gene, E. coli kanamycin selection, DiMSum; sequences stand for … in CUCUCU…GGAGGGAAAAGUUAUCAGGCAUGCACCUGGUAGCUAGUCUUUAAACCAAUAGAUUGCAUCGGUUUAAAAGGCAAGACCGUCAAAUUGCGGGAAAGGGGUCAACAGCCGUUCAGUACCAAGUCUCAGGGGAAACUUUGAGAUGGCCUUGCAAAGGGUAUGGUAAUAAGCUGACGGACAUGGUCCUAACCACGCAGCCAAGUCCUAAGUCAACAGAUCUUCUGUUGAUAUGGAUGCAGUUCACAGACUAAAUGUCGGUCGGGGAAGAUGUAUUCUUCUCAUAAGAUAUAGUCGGACCUCUCCUUAAUGGGAGCUAGCGGAUGAAGUGAUGCAACACUGGAGCCGCUGGGAACUAAUUUGUAUGCGAAAGUAUAUUGAUUAGUUUUGGAGUACUCGUGGUCG
The gist of the method:
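Pooled colonies went to amplicon sequencing on an Illumina HiSeq 2500 after six replicate transformations. The plates were LB agar with 100 μg/mL carbenicillin, 50 μM IPTG and 0.2% rhamnose, with or without 25 μg/mL kanamycin, incubated overnight at 37°C or 30°C. The E. coli BL21(DE3) library had all eight P1ex-region intron nucleotides randomised, the intron placed in the knt kanamycin-resistance gene on pET-22b(+). DiMSum fitness is the error-weighted combination of replicate fold changes, kanamycin against none, normalised to wild type.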

CCUGAGCAAUAUUACGGCCC: the “self-splicing fitness (ln)” value (30 °C) was -2.54 ± 0.32.

Consider CCUGAGCAAUAUUACGGUAA, for which the “self-splicing fitness (ln)” value was -3.76 ± 0.37 (30 °C) and -3.55 ± 0.25 (37 °C).

For the sequence CCUGAGCAAUAUUACGUAAC, the “self-splicing fitness (ln)” value (37 °C) was -2.3 ± 0.35.

For CCUGAGCAAUAUUACGUACC, the “self-splicing fitness (ln)” value is -0.796 ± 0.25 (30 °C) and -2.27 ± 0.37 (37 °C).

Consider CCUGAGCAAUAUUACGUCCU, for which the “self-splicing fitness (ln)” value (30 °C) was -4.5 ± 0.39.

With CCUGAGCAAUAUUACGUGCU, the “self-splicing fitness (ln)” value by setting is: (30 °C) -3.25 ± 0.19; (37 °C) -2.24 ± 0.2.

Consider CCUGAGCAAUAUUACGUUAC, for which the “self-splicing fitness (ln)” value (30 °C) is -3.52 ± 0.26 and the “self-splicing fitness (ln)” value (37 °C) was -3.09 ± 0.36.

CCUGAGCAAUAUUACGUUGC: the “self-splicing fitness (ln)” value is -2.07 ± 0.31 (30 °C) and -2.27 ± 0.43 (37 °C).

For the sequence CCUGAGCAAUAUUACGUUGG, the “self-splicing fitness (ln)” value (30 °C) was -4.56 ± 0.29 and the “self-splicing fitness (ln)” value (37 °C) is -2.16 ± 0.16.

With CCUUAGCAAUAUUACGAAGA, the “self-splicing fitness (ln)” value (30 °C) is -2.58 ± 0.27 and the “self-splicing fitness (ln)” value (37 °C) was -3.3 ± 0.26.

For the sequence CCUUAGCAAUAUUACGAAGG, for the setting “30 °C”, the “self-splicing fitness (ln)” value was -3.53 ± 0.32.

As to CCUUAGCAAUAUUACGAGCA, the “self-splicing fitness (ln)” value runs as follows: (30 °C) -2.64 ± 0.22; (37 °C) -3.17 ± 0.33.

In the case of CCUUAGCAAUAUUACGAGCG, the “self-splicing fitness (ln)” value (30 °C) was -1.02 ± 0.077 and the “self-splicing fitness (ln)” value (37 °C) is -0.792 ± 0.095.

On to CCUUAGCAAUAUUACGAUCC, for which the “self-splicing fitness (ln)” value (30 °C) was -2.32 ± 0.4 and the “self-splicing fitness (ln)” value (37 °C) was -2.74 ± 0.49.

CCUUAGCAAUAUUACGAUCG: the “self-splicing fitness (ln)” value is -0.392 ± 0.07 (30 °C) and -0.134 ± 0.1 (37 °C).

Take CCUUAGCAAUAUUACGCAUA: the “self-splicing fitness (ln)” value reads like this: (30 °C) -3.22 ± 0.46; (37 °C) -2.24 ± 0.37.

Turning to CCUUAGCAAUAUUACGCCCA, where the note is “30 °C”, the “self-splicing fitness (ln)” value was -1.96 ± 0.34.

For the sequence CCUUAGCAAUAUUACGCGGU, the “self-splicing fitness (ln)” value (30 °C) was -3.78 ± 0.36.

With CCUUAGCAAUAUUACGCUAG, the “self-splicing fitness (ln)” value is, setting by setting: (30 °C) -3.32 ± 0.29; (37 °C) -2.04 ± 0.38.

For the sequence CCUUAGCAAUAUUACGCUGG, the “self-splicing fitness (ln)” value is -1.57 ± 0.18 (30 °C) and -2.43 ± 0.3 (37 °C).

Regarding CCUUAGCAAUAUUACGGAGC, the “self-splicing fitness (ln)” value is -3.54 ± 0.34 (30 °C) and -2.4 ± 0.25 (37 °C).

Turning to CCUUAGCAAUAUUACGGCGG, the “self-splicing fitness (ln)” value by setting is: (30 °C) -2.92 ± 0.17; (37 °C) -2.05 ± 0.21.

CCUUAGCAAUAUUACGGCUC: the “self-splicing fitness (ln)” value was -3.72 ± 0.21 (30 °C) and -3.45 ± 0.39 (37 °C).

Regarding CCUUAGCAAUAUUACGGUAG, the “self-splicing fitness (ln)” value runs as follows: (30 °C) -4.09 ± 0.28; (37 °C) -2.1 ± 0.23.

On to CCUUAGCAAUAUUACGGUGC, for which the “self-splicing fitness (ln)” value reads like this: (30 °C) -3.75 ± 0.19; (37 °C) -3.01 ± 0.25.

As for CCUUAGCAAUAUUACGGUUG, the “self-splicing fitness (ln)” value (30 °C) is -2.38 ± 0.1 and the “self-splicing fitness (ln)” value (37 °C) is -1.48 ± 0.098.

Turning to CCUUAGCAAUAUUACGUCCC, the “self-splicing fitness (ln)” value (30 °C) is -1.81 ± 0.5.

For the sequence CCUUAGCAAUAUUACGUCUA, the “self-splicing fitness (ln)” value (37 °C) is -2.65 ± 0.23.

For CCUUAGCAAUAUUACGUCUU, the “self-splicing fitness (ln)” value runs as follows: (30 °C) -3.66 ± 0.16; (37 °C) -2.61 ± 0.17.

Turning to CCUUAGCAAUAUUACGUGAA, the “self-splicing fitness (ln)” value runs as follows: (30 °C) -4.2 ± 0.24; (37 °C) -3.37 ± 0.28.

Turning to CCUUAGCAAUAUUACGUUAA, the “self-splicing fitness (ln)” value was -3.13 ± 0.27 (30 °C) and -2.71 ± 0.31 (37 °C).

For CCUUAGCAAUAUUACGUUCG, the “self-splicing fitness (ln)” value is -3.37 ± 0.29 (30 °C) and -0.857 ± 0.18 (37 °C).

CCUUAGCAAUAUUACGUUCU: the “self-splicing fitness (ln)” value reads like this: (30 °C) -4.18 ± 0.46; (37 °C) -1.5 ± 0.34.

In the case of CGAAAGCAAUAUUACGACCC, the “self-splicing fitness (ln)” value was -1.42 ± 0.2 (30 °C) and -0.478 ± 0.23 (37 °C).

For CGAAAGCAAUAUUACGACCG, the “self-splicing fitness (ln)” value runs as follows: (30 °C) -0.423 ± 0.12; (37 °C) -0.183 ± 0.15.

With CGAAAGCAAUAUUACGACGC, the “self-splicing fitness (ln)” value reads like this: (30 °C) -1.81 ± 0.13; (37 °C) 0.0494 ± 0.18.

CGAAAGCAAUAUUACGAUGG: the “self-splicing fitness (ln)” value (30 °C) was -0.519 ± 0.07 and the “self-splicing fitness (ln)” value (37 °C) is 0.406 ± 0.1.

On to CGAAAGCAAUAUUACGAUGU, for which the “self-splicing fitness (ln)” value runs as follows: (30 °C) -1.52 ± 0.074; (37 °C) -1.15 ± 0.13.

As for CGAAAGCAAUAUUACGAUUG, the “self-splicing fitness (ln)” value is -0.934 ± 0.074 (30 °C) and -0.262 ± 0.1 (37 °C).

For the sequence CGAAAGCAAUAUUACGCCUA, the “self-splicing fitness (ln)” value is, setting by setting: (30 °C) -2.47 ± 0.24; (37 °C) -0.736 ± 0.14.
